Assay: yeast display, Sf9 membrane polyspecificity reagent, FACS + sequencing; frameworks hold sequencing errors
How it was run: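 Genes from sorted yeast were amplified by colony PCR, read by MiSeq 2 × 250 sequencing and filtered on CDR length. These cells carried a synthetic nanobody library in Saccharomyces cerevisiae BJ5465 and were sorted by FACS into low and high (top ~1%) gates on anti-HA and streptavidin fluorescence. Polyreactivity is labelled according to the gate of origin.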

Sequence: QVQLVESGGGLFQAGGSLRLSCAASGFTFGIYAMGWYRQAPGKERELVAAITKRGGITSYADSVKGRFTISRDNAKNTVYLQMNSLKPEDTAVYYCAKIGGFLSYWSGDYWGQGTQVTVSS
- polyreactivity (PSR sort gate): low polyreactivity

Sequence: QVQLVESGGGLVQAGCSLRLSCAASGRIFYRNAMGWYRQAPGKERELVAGITRGGSTNYADSVKGRFTISRDNAKNNVYLQLNSLKPEDTAVYYCAKAIPAKFYSEAGYDYWGQGTQVTVSS
- polyreactivity (PSR sort gate): low polyreactivity

Sequence: QVQLVESGGGLVQAGGSLRLSCAASGSIFDYYVMGWYRQAPGKERELVAAISWSGASTYYADSVKGRFTISRDNAKNTVYLHMNSLKPEDTAVYYCAADYGVNTLIDYDYWGQGTQVTVSS
- polyreactivity (PSR sort gate): low polyreactivity

Sequence: QVQLVESGAGLVQAGGSLRLSCAASGSIFDVNAMGWYRQAPGKERELVAAISQRGTRTYYADSVKGRFTISRDNAKNTVYLQMNRLKPEDTAVYYFNRGGWRKYDSWGQGTQVTVSS
- polyreactivity (PSR sort gate): high polyreactivity

Sequence: QVQLVESGGALVQAGGSIRLSCAASGSTFAYYAMGWYRQATGKERELVAAINWRTYYADSVKGRFTISRDNAKNTVYLQMNSLKPEDSAVYYCAAGYYRNKFYYWGQGTQVTVSS
- polyreactivity (PSR sort gate): high polyreactivity

Sequence: QVQLVESGGGLVQAGGSLRLSCAASGRTFGHNAMGWYRQAPGKERELVAAISASGSNTYYADSVKGRFTISRDNAKNTVYLQMNSLKPEDTAVYYCAKQVYRTGQQSRYDYWGQGTQVTVSS
- polyreactivity (PSR sort gate): low polyreactivity

Sequence: LVQLQESGGGLVQAGGSLRLSCAASGTISPGGYMGWYRQAPGKERELVASMNVGGSTNYADSVKGRFTISRDNAIITVYLQMNSLKPEDNAVYYCAVWGRNRLQLSYWGQGTQVTVSS
- polyreactivity (PSR sort gate): low polyreactivity

Sequence: QVQLVESGGGLDQAGGSLRLSCAASGRTFSWYAMGWYRQAPGKERELVAAITYSGGNTYYAHSVKGRFTISRDNAKITVYLLRNSLKPDDNAVYYCAAPSLIAKYEYWGQGTQVTVSS
- polyreactivity (PSR sort gate): high polyreactivity

Sequence: HVQLVESGGGLVQAGGSLRLSCAASGRTFPYYAMGWYRQAPGKERELVAGITSNAGSTYYADSVKGRFTISRDNAKNTVYLLMNSLKPEDTAVYYCAKTKAGRWTTFKFGYWGQGTQVTVSS
- polyreactivity (PSR sort gate): high polyreactivity

Sequence: QVQLVESGGGLVQAGGSLRLSCADSGHIFFYYTMGWYRQAPGKEREMVAGITIGGSTNYADSVKVRFTISRDNAKNTVYLQMNSLKPEDTAVYYCNVVKYVYIYSYSEYYYWGQGTQVTVSS
- polyreactivity (PSR sort gate): low polyreactivity

Sequence: QDQLVQSGLGLVQAGGSLRLSCAASGITFYWYTIAWYRQATGKERELVAAISRRGGSTSYADSVKGRFTISRDNAKNTVYLQMNSLKPEDTAVYYCAKTPGWTDYDYWGQGTQVTVSS
- polyreactivity (PSR sort gate): high polyreactivity

Sequence: QVQLVESGGGLVQAGGSLRLSCAASGGIFRYYAMGWYRQAPGKERELVAAISKRGGSTYYADSVKGRFTISRDNAKNTVYLQMNSLKPEDTAVYYCAAEGYYGSSYGYWGQGTQVTVSS
- polyreactivity (PSR sort gate): high polyreactivity

Sequence: QVQLVESGGGLVQAGGSLRLSCAASGSIFSVNAMGWYRQAPGKERELVASINFRGGRTYYADSVKGRFTISRDNAKNTVYLQMNSLKPEDTAVYYCAAVISQTDTGYGPSFRVYYWGQGTQVTVSS
- polyreactivity (PSR sort gate): high polyreactivity

Sequence: QDQLVESGGCLVQAGGSLRLRCAASGITFDRYTMGWYRQAPGKERELVAAIRSGGGTYYADSVKGRFTISRDNAKNTVYLQMNSLKPEDTAVYYCAATRVSPSQYLRYYYWGQGTQVTVSS
- polyreactivity (PSR sort gate): high polyreactivity

Sequence: QVQLVESGGGLVQAGGSLRLSCAASGRIFYYNSMGWYRQAPGKERELVAAIRRSGSRTYYADSVKGRFTISRDNAKNTVYFQMNSLIPEDTAVYYCAAKYASFGHHDSWGQGTQVTVSS
- polyreactivity (PSR sort gate): high polyreactivity

Sequence: QVQLVESGGGLFQAGGSLRLSCAASGFTFDYYAMGWYRPAPGKERELVAAISRAGSTNYADSVKGRFTISRDNAKNTVYLQMNSLKPEDTAVYYCNKGYHSWSRLSQFGWSYDYWGQGTQVTVSS
- polyreactivity (PSR sort gate): high polyreactivity

Sequence: QVQLVESGGGLVQAGGSLRLICAASRFTYYRNVMGWYRQAPGKERELVAPISRRGDRTYADSVKGRFTISRDNAKNTVYLQMNSLKPEDTAVYYFAPTPYSYWTRYYYWGQGTQVTVTS
- polyreactivity (PSR sort gate): high polyreactivity

Sequence: KVQLVESGGGLVQAGGSLRLSCDASGSTFQYYTMGWYRQAPGKESELVAAISADGGNTYYADSVKGRFTISRDNAKNTVYLQMNSLKPEDTAVYYCNADVSLTLRTLVPGRAYDYWGQGTQVTVSS
- polyreactivity (PSR sort gate): low polyreactivity

Sequence: QVQLVESGGGLVQAGGSLRLSCAASGFIFYRYAMGRYRQAPGKERELVAAISWGGGSTTYYADSVKGRFTISRDNAKNTVYLQMNSLKPEDTAVYYCAAYIGKGYGSEYYYWGQGTQVTVSS
- polyreactivity (PSR sort gate): low polyreactivity

Sequence: QVQLVESGGGLVQAGGSLRLSCAASGRIISRNAMGWYRQAPGKERELVAAISGSGSRTFYADSVKGRFTISRDNAKNTVYLQMNSLKPEDTAVYYCAADRSSYSRFYYWGQGTQVTVSS
- polyreactivity (PSR sort gate): high polyreactivity

Sequence: QVQHVESGGGLVQAGGSLRLSCAASGSIFRRYDLGWSRQAPGKERELVAAISSSGGSTYYADSVKGRFTISRDNAKNTVYLQMNSLKPEDTAVYYCAADIYDDDRSESTEYDYWGQGTQVTVSS
- polyreactivity (PSR sort gate): low polyreactivity

Sequence: QVQLVESGGGLVQAGGSLRLSCAASGRTFDRNARGWYRQAPGKEREVVARITIDGSTNYADSVKGRFTISRDNAKNTVYLQMNSLKPEETAVYYCATDQLSLSWYFRPYDYCYWGQVTQVTVSS
- polyreactivity (PSR sort gate): high polyreactivity

Sequence: QVQLVESGGGLVQAGGSLLLSCAPSGSTIPSYAMGWYRQSPGKERELVASITYSDGTTRYADSVKGRFTISRDNAKNTVYLQMNSLKPEDTAVYYCNAVYYREGMDYWGQGTQVTVSS
- polyreactivity (PSR sort gate): low polyreactivity

Sequence: QVQLVESGGGLVQAGGSLRLSCAASGFIFNRYAMGWYRQAPGKERELVAAITASGGSTYYADSVKGRFTISRDNAKNTVYLQMNSLKQEDTAVYYCAARAWLYSRRYGYWGQGTQVTVSS
- polyreactivity (PSR sort gate): high polyreactivity

Sequence: QVQLVESGGGLVQAGGSLRLSCAASGRTFWVYAMGWYRQAPGKERELVAAINTGGSTTYADSVKGRFTISRDNAKNTVYLQMNSLKPEDTAVYYCAADTWWYGKYDYWGQGTQVTVSS
- polyreactivity (PSR sort gate): low polyreactivity

Sequence: QVQLVESGAGLVQAGGSLRLSWAPSGITFLYYAMGLYRQAPGTEMELVATISISGGSTYYADSVKGRFTISRDNAKYTVYLQMTSLQPEESAVYYCAADDSVVTYSYDTWLVDYDYWGQATQVTVSS
- polyreactivity (PSR sort gate): low polyreactivity

Sequence: QVQLVESGGGLVQAGGSLRLSCAASPLTFRYYDMGWYRQAPGKERELVAAISRTGRTNYADSVKGRFTISRDNAKNTVYVQMNSLKPEDTAVYYCAATGIYAKALLWYDYWGQGTQVTVSS
- polyreactivity (PSR sort gate): high polyreactivity

Sequence: QVQLVESGGGLVQAGGSLRLSCAASGSTFQSNARGWYRQAPGKERELVASITSSGVSTYYADSVKGRFTISRDNAKNTVYLQMNSLKPEDTAVYYCAASSYDAYDYGFRFDYWGQGTQVTVSS
- polyreactivity (PSR sort gate): low polyreactivity

Sequence: QVQLVESGGCLVQAGGSLRLSCDASGSIFYRNVIGWYRQAPGKERELVATISRGGTTNYADSVKGRFTISRDNAKNTVYLQMNSLKPEDTAVYYCAADASSKLYDYWGQGTQVTVSS
- polyreactivity (PSR sort gate): low polyreactivity

Sequence: QVQLVESGGGVVQAGGSLRLSCAASGFIFWLYAMGRYRQAPGKERELVATITYSDGSTYYADSVKGRFTISRDKANNTDYLQMNSLKPEDTAVYYCAAEVYYGYDYWGQGTQVTVSS
- polyreactivity (PSR sort gate): low polyreactivity

Sequence: QVQLLESGVCLVQAGGSLRLSCAASGFTFGVYAMGWYRQAPGKERELVAAISTTVGSTYYADSVKGRFTISRDNAKKTVYLQMNSLKPEDTAVYYCAAEYTGYINYYIYEYWGQGTQVTVSS
- polyreactivity (PSR sort gate): low polyreactivity

Sequence: QVQLVESGRGLVQAGGSLRLSCAASGRTFGYYAMGWYIQAPGKERELVAAISYSGGSTYYADSVKGRFKISRDNAKNTVYLQMNSLKPEDTAVYYCAAYLRRYPWYDYWVQGTQVTVSS
- polyreactivity (PSR sort gate): high polyreactivity

Sequence: QVQLVESGGGLVQAGGSLRLICAASGSTFVVNAMGWYRQAPGKERELVAAIRNSGSTTYADSVKGRFTISRDNAKNTVYLQMNSLKPEDTAVYYCATDFSATVTAVQINPYDYWGQGTQVTVSS
- polyreactivity (PSR sort gate): low polyreactivity

Sequence: QVQLVESGGGLVQAGGSLRLSCAASASTFYSYTMGWSRQAPGKERELVAAISRSGGRTYYADSVKGRFTISRDNAKNTVYLQMNSLKPEDTAVYYCAARWLGVDDYEYWGQGTQVTVSS
- polyreactivity (PSR sort gate): high polyreactivity

Sequence: QVQLVESAGGLVQAGGILRLRCAASGFTFTSNAMGWYRQAPGKEREFVADISNIGGDTTYADSVKGRFTISRDNAKNTVYLQMNSLNPEDTAVYYCNADFAFIENDYCGQGTQVTVSS
- polyreactivity (PSR sort gate): low polyreactivity

Sequence: QVQLVESGGGLVQAGGSLRLSCAASGRTFYRYAMGWYRQAPGKERELVAVISTDGSSTYYADSVKGRFTISRDNAKNTVYLLMNSLKPEDTAVYYCAARSLAWLFGRNYWGQGTQVTVSS
- polyreactivity (PSR sort gate): high polyreactivity

Sequence: QVQLVESGGGLVQAGGSLRLSCAASGITFRLYAMGWYRQAPGKERELVAAISKRGGSTYYADSVKGRFTISRDNAKNTVYLQMNSLKPEDTAVYYCAADSGWEHRYDYWGQGTQVTVSS
- polyreactivity (PSR sort gate): high polyreactivity

Sequence: QVQLVESGGGLVQAGGSLRLSCAASGSTFYGNAMGWYRQAPGKERELVAAISWSGGSTYYADSVKGRFTISRDNAKNTVYLQMNSLKPEDTAVYYCNKDVLLYYVYGHDYWGQGTQVTVSS
- polyreactivity (PSR sort gate): low polyreactivity

Sequence: QDQHVESGGGLVQAGGSLRLSCAASGSTFRKYAMGRSRQAPGKERELVAAISWSGGRTYYADSVKGRFTISRDNAKKTFYLQLNSLKPEDTAVYYCAASIPGTRSDGYWGQGTQVTVSS
- polyreactivity (PSR sort gate): high polyreactivity

Sequence: QVHLEESGGGLVQAGGSLRLSCAASGSIFGDNAKGWYRQAPGKERELVAAISSSGGSTYADSVKGRFTISRDNAKNTVYLQMNSLKPEDTAVYYCATQIAWCTYVINPQMDFWGQGTLVTVSS
- polyreactivity (PSR sort gate): low polyreactivity

Sequence: QVQLVESGGGLVQAGGSLRLSCAASGSIFPANAMGWYRQAPGKERELVAGISERGSSTYYADSVKGRFTISRDNAKNTDYLQMNSLKPEDTAVYYCAADDVGRYWSYTHNWARGDYWGQGTQVTVSS
- polyreactivity (PSR sort gate): low polyreactivity

Sequence: QVQLVESGGGLVQAGGSLRLSCAASGSIFDPYAMGGYRQAPGKERELVAAISFITGGTYYADSVMGRFTISRDNAMNTVYLQMNSLKPEDTAVYYCNADYFYKGGWVWRDEYWGQGTQVTVSS
- polyreactivity (PSR sort gate): high polyreactivity

Sequence: QVQLVESGGGLVQAGGSLRLSCAASGSIFTDNAMGWYRQAPGKERELVAGISYNGDNTYYADSVKGRFTISRDNAKNTVYLQMNSLKPEDTAVYYCAAADGIIESDYWGQGTQVTVSS
- polyreactivity (PSR sort gate): low polyreactivity
